One substance from paper PMC7277169, “C-Methylation of S-adenosyl-L-Methionine Occurs Prior to Cyclopropanation in the Biosynthesis of 1-Amino-2-Methylcyclopropanecarboxylic Acid (Norcoronamic Acid) in a Bacterium” (Biomolecules, 2020) can be followed below.

For the series, the system named is T1, C[S+](CC[C@H](N)C(=O)O)C[C@H]1O[C@@H](n2cnc3c(N)ncnc32)[C@H](O)[C@@H]1O.
T1 construct: C-terminal 8xHis tag kept; expressed in Streptomyces lividans TK23; Ni-NTA purified; homodimer
Description: HPLC-HR-ESI-MS of APDS-derivatized ACC; Michaelis-Menten fit. The series is classed as biochemical, Streptomyces violaceusniger. As to conditions: 50 mM sodium phosphate pH 8.0, 30 °C, 60 min, PLP enzyme, unit typeset as 'mm' in text.

By Km is commonly meant the substrate concentration at which the rate is half of its maximum. As usually defined, the kcat is the number of substrate molecules converted per active site and unit of time at saturation.

As for “rOrf30 (Orf30) (Streptomyces violaceusniger)”, the Km was 1090 ± 330 µM and the kcat turned out to be 0.0049 ± 0.00068 s⁻¹.
